Among the data in patent US20220289814A1 are Relative ISD-modified CAR expression (CAR positive rate, FACS with FITC-labeled human BCMA, normalized to empty vector control), day 3 after Nef transduction values, retold here.

What all share (experiment): cell-based or functional assay
For assay [1], the target named is M665 ITAM-modified BCMA CAR (ISD: Linker 6-CD3ζ ITAM1-Linker 1-CD3ζ ITAM1-Linker 7-CD3ζ ITAM1-Linker 2) (UniProt P01732).
The target of assay [2] is M666 ITAM-modified BCMA CAR (ISD: Linker 6-CD3ζ ITAM2-Linker 1-CD3ζ ITAM2-Linker 7-CD3ζ ITAM2-Linker 2) (UniProt P01732).
M666 ITAM-modified BCMA CAR (ISD: Linker 6-CD3ζ ITAM2-Linker 1-CD3ζ ITAM2-Linker 7-CD3ζ ITAM2-Linker 2), sequence (P01732 whole entry): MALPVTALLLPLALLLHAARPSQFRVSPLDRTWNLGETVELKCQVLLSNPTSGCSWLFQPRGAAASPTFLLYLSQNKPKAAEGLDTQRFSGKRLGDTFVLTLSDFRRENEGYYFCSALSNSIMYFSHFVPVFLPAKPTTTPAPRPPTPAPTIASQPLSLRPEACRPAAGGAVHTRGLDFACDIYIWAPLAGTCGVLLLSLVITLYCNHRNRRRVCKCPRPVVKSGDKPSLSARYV
The target of assay [3] is M663 ITAM-modified BCMA CAR (ISD: Linker 6-CD3ζ ITAM1-Linker 1-CD3ζ ITAM2-Linker 7-CD3ζ ITAM3-Linker 2) (UniProt P01732).
M663 ITAM-modified BCMA CAR (ISD: Linker 6-CD3ζ ITAM1-Linker 1-CD3ζ ITAM2-Linker 7-CD3ζ ITAM3-Linker 2), sequence (P01732 whole entry): as above

M665 ITAM-modified BCMA CAR (ISD: Linker 6-CD3ζ ITAM1-Linker 1-CD3ζ ITAM1-Linker 7-CD3ζ ITAM1-Linker 2), sequence (P01732 whole entry): as above

On to wildtype SIV Nef, for which the Relative ISD-modified CAR expression (CAR positive rate, FACS with FITC-labeled human BCMA, normalized to empty vector control), day 3 after Nef transduction in assay [1] turned out to be 82.3%; in assay [2], 57%; in assay [3], 46.7%.
